Data taken from publication PMC8611056.
Each block holds one substance with its values, some of them ahead of it.

What was measured:
[1] = target: IsdB NEAT1 (aa residues 144-270) (S. aureus SH1000) (UniProt Q2FZF0); test: SPR; Biacore X-100; 6xHis-IsdB proteins captured on Ni2+-NTA chip, A1 lacking the 6xHis tag as analyte (0.08 to 1.25 μM), single-cycle mode, 25 °C; heterogeneous ligand binding model (two ligand populations L1, L2); buffer PBS with 0.005% Tween 20 or HBS-EP+ (methods)
[2] = target: IsdB NEAT1-NEAT2 (aa residues 48-480) (S. aureus SH1000) (UniProt Q2FZF0); test: as above
[3] = target: IsdB NEAT2 (aa residues 334-458) (S. aureus SH1000) (UniProt Q2FZF0); test: as above
[4] = target: vWF on calcium ionophore-activated HUVEC monolayers (human (endogenous in HUVEC)); test: bacterial adhesion to cell monolayers (ELISA-type); ionophore-treated HUVEC monolayers incubated for 1 h with S. aureus SH1000 WT or isdB mutant (with or without 250 ng/well mAb 6D1 or isotype control), or with L. lactis with pNZ8037::isdB or empty vector
[5] = target: human von Willebrand factor (human) (UniProt P04275); test: ELISA; competition: wells coated with 1 μg of vWF, 1 μg of IsdB with or without 10 μg/well of each vWF ligand; detected with anti-IsdB IgG; percent of control without competitor

Substance: recombinant vWF A1 domain lacking the 6xHis tag (domain or fragment)
KD1 (ligand population L1) [1]: 53 µM | KD2 (ligand population L2) [1]: 5.3 µM | KD1 (ligand population L1) [2]: 1.7 µM | KD2 (ligand population L2) [2]: 0.9 µM | KD1 (ligand population L1) [3]: 0.3 µM | KD2 (ligand population L2) [3]: 0.4 µM

Substance: IsdB on S. aureus SH1000 cells (from UniProt Q2FZF0 41-613) (natural protein)
adhesion of wild-type cells over isdB mutant cells [4]: 3 times

reduction of IsdB NEAT1-NEAT2 binding to vWF at 10 μg/well [5]: 50%
Substance: collagen type IV (complex)

reduction of IsdB NEAT1-NEAT2 binding to vWF at 10 μg/well [5]: 50%
Substance: collagen type VI (complex)
